In the experiment the target is Histone H3 tail peptide H3K9MK14C with a C-terminal biotinylated lysine (fission yeast, C-terminal biotinylated lysine). In words: BLI. A general note: In BLI a coated tip is dipped into the sample, and binding shifts an interference pattern.

B1: Clr4 SET domain (residue 190–490) (domain or fragment)
chain: NPSKLDSYTHLSFYEKRELFRKKLREIEGPEVTLVNEVDDEPCPSLDFQFISQYRLTQGVIPPDPNFQSGCNCSSLGGCDLNNPSRCECLDDLDEPTHFAYDAQGRVRADTGAVIYECNSFCSCSMECPNRVVQRGRTLPLEIFKTKEKGWGVRSLRFAPAGTFITCYLGEVITSAEAAKRDKNYDDDGITYLFDLDMFDDASEYTVDAQNYGDVSRFFNHSCSPNIAIYSAVRNHGFRTIYDLAFFAIKDIQPLEELTFDYAGAKDFSPVQSQKSQQNRISKLRRQCKCGSANCRGWLFG
As to B1, the t1/2 came out at 9.6 s.

These data come from paper PMC8167812 (Cell reports, 2021).
